4 molecules from EP4786496A1 (Nanjing Iaso Biotechnology Co., Ltd., dated 2026) can be followed below.

Test [1] deals with T1, ACRO-CD70-his (Biotinylated Human CD27 Ligand ,His,Avitag; ACRObiosystem CDL-H82Q9) (human, UniProt P32970 39-193, limits assumed, biotinylated (Avitag)).
T1 construct: Bought unrelated antigen; not shown: His tag and Avitag
T1 sequence (looked up): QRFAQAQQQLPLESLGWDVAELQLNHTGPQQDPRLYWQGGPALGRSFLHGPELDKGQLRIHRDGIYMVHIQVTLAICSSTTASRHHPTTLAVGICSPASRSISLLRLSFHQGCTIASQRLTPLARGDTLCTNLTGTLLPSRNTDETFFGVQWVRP
Put plainly: phage ELISA.

For test [2], the target named is T2, Streptavidin (Pierce, 21125) (UniProt P22629 37-163, limits assumed).
T2 construct: Control antigen of the ELISA; also called SA; control protein SA
T2 sequence (P22629 37-163 limits assumed): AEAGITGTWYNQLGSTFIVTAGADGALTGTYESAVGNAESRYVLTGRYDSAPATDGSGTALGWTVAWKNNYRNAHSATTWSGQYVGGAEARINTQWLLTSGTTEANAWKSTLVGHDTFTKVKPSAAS
Put plainly: phage ELISA.

For test [3], the target named is T3, KACTUS-CD19-Fc (Recombinant biotinylated Human CD19 Protein, KACTUS CD2-HE121) (human, UniProt P15391 20-291, biotinylated (site not stated)).
T3 construct: Bought unrelated antigen; not shown: Fc
T3 sequence (looked up): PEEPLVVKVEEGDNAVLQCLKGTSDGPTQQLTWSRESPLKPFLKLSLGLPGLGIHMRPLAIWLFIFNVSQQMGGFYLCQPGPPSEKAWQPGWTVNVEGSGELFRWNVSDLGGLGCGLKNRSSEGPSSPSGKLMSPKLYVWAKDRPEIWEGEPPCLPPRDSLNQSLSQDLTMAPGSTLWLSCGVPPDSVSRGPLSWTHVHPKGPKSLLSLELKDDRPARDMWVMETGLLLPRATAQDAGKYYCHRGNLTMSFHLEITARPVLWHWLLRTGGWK
The experiment in a line: phage ELISA.

Test [4] has as its target T4, BAFF-R on the surface of BAFF-R-positive cells (K562-BAFF-R, NALM6, RS4, MEC1, JEKO1) (human, UniProt Q96RJ3 1-184).
T4 construct: The cell line is named under assay or readout of each row; K562-BAFF-R overexpresses BAFF-R; the others are human tumour lines that carry it natively; also called K562-BAFF-R cells; RS4-luc
T4 sequence: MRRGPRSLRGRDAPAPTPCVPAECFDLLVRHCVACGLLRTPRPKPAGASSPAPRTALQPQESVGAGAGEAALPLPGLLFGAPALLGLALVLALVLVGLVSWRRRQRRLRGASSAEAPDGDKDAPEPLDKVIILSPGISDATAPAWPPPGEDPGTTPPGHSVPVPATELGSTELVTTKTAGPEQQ
Put plainly: flow cytometry, phage on K562-BAFF-R and NALM6 cells.

For test [5], the target named is T5, His-tagged human BAFF-R antigen (BAR-H52H3, Acro) (human, UniProt Q96RJ3 7-71, limits assumed).
T5 construct: Bought protein used in BLI; not shown: His tag
T5 sequence: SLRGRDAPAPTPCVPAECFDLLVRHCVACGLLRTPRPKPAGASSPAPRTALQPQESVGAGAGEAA
The experiment in a line: BLI (ForteBio Octet), His-tagged antigen on HIS1K sensor, antibody in solution.

Test [6] addresses T6, Recombinant biotinylated Human BAFF-R Protein (KACTUS, BAFF-R-HM401) (human, UniProt Q96RJ3 7-71, limits assumed, biotinylated (site not stated)).
T6 construct: Bought protein; treated as one product; also called BAFF-R-his-Bio; BAFF-R-Bio-his; not shown: His tag
T6 sequence: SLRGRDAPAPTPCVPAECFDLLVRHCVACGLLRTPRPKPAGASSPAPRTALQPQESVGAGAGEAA
Put plainly: ELISA, antigen coated on plate, anti-human IgG HRP.

For test [7], the target named is T7, BAFFR-cyno-His (BAF-CM10R, KACTUS) (cynomolgus, UniProt Q96RJ3 7-71 (human entry), limits assumed).
T7 construct: Bought protein; also called Cyno BAFF-R; cynomolgus BAFF-R; not shown: His tag
The experiment in a line: ELISA, antigen coated on plate, anti-human IgG HRP.

The target in test [8] is T8, BAFFR-mouse-rFc (50353-M31H, Sino) (mouse, UniProt Q9D8D0 1-71).
T8 construct: Bought protein; also called Mouse BAFF-R; not shown: rFc
T8 sequence: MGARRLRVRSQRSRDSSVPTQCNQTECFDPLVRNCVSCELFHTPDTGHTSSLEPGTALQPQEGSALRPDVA
Put plainly: ELISA, antigen coated on plate, anti-human IgG HRP.

B1: Clone 1 (monoclonal phage antibody) (scFv, V domains shown)
VH: EVQLVESGAEVKKPGASVKVSCKASGYTFTSYGISWVRQAPGQGLEWMGWISAYNGNTNYAQKLQGRVTMTTDTSTSTAYMELRSLRSDDTAVYYCARNTYYYDSSGYPNDAFDIWGQGTTVTVSS
VL: DIQMTQSPSSLSASVGDRVTITCRASQKISSYLNWYQQKPGKAPKLLIYAASSLQSGVPSRFSGSGSGADFTLTISSLQPEDFATYYCQQSYSPPTTFGGGTKVDIKR
notes: also called 01
Consider B1, for which the binding result in test [1], in test [2] and in test [3] was “no binding” in each case.

B2: VAY736 positive control phage antibody clone (scFv)
scFv: QVQLQQSGPGLVKPSQTLSLTCAISGDSVSSNSAAWGWIRQSPGRGLEWLGRIYYRSKWYNSYAVSVKSRITINPDTSKNQFSLQLNSVTPEDTAVYYCARYQWVPKIGVFDSWGQGTLVTVSSGGGGSGGGGSGGGGSDIVLTQSPATLSLSPGERATLSCRASQFILPEYLSWYQQKPGQAPRLLIYGSSSRATGVPARFSGSGSGTDFTLTISSLEPEDFAVYYCQQFYSSPLTFGQGTKVEIK
notes: also called VAY736 antibody
For the molecule B2, in test [4], the binding result is on record as “binds”.

B3: Clone 5 monoclonal antibody with Fc comprising S228P/L235E (05VH-hFc PE) (antibody, human IgG4 S228P, V domains shown)
VH: EVQLVESGGGVVQPGRSLRLTCAASGFTFSTSGMYWIRQAPGKGLEWVSYISSSSSTIYYADSVKGRFTISRDNSKNTLYLQMNSLRAEDTAVYYCVTQSCGAGKCYPGVWGQGTTVTVSS
notes: Single-domain VH fused to a human Fc, made in CHOS cells; also called Clone 05; clone 05 monoclonal antibody
As for B3, in test [5], binding was put at a Kd of 2.63 nM, the koff came out at 0.00163 s⁻¹ and the kon was 622000 M⁻¹ s⁻¹. The EC50 in test [6] came to 0.965 nM. In test [7], the half-maximal effective concentration (EC50) came to 1.91 nM. A half-maximal effect in test [8] (EC50) was put at 3.4 nM.

B4: Clone 5 (monoclonal phage antibody) (VHH)
VHH: EVQLVESGGGVVQPGRSLRLTCAASGFTFSTSGMYWIRQAPGKGLEWVSYISSSSSTIYYADSVKGRFTISRDNSKNTLYLQMNSLRAEDTAVYYCVTQSCGAGKCYPGVWGQGTTVTVSS
notes: also called 05; 05VH
Consider B4, for which the binding result in test [1], in test [2] and in test [3] was “no binding” in each case.
